Results from the supplement of paper PMC9732359.
± gives the uncertainty stated by the source.

Experiment: protein stability index of a GFP-peptide fusion (yeast GPS) (PSI 1-4); higher = more stable; sorted into four equal gates, so the index is relative within each strain
Procedure, shortened: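 Tiled 17-residue yeast protein peptides were fused downstream of GFP in a plasmid that also expresses Cherry, and the pooled library was carried in yeast. Mid-log cultures in leucine-free medium were sorted into four equal gates by GFP/Cherry fluorescence ratio, and plasmids from each gate were PCR-amplified and Illumina-sequenced, with reads assigned to strains by barcodes. The protein stability index for each peptide was each gate's read frequency times its gate number, summed.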

Sequence | protein stability index (doa10∆) | protein stability index (pdr5∆) | protein stability index (san1∆) | protein stability index (ubr1∆)
EPFFLVTKITDMLLHKY [SRB8] | 2.86 ± 0.11 | 2.52 ± 0.088 | 2.88 ± 0.061 | 2.72 ± 0.083
NSTASSSNISPEQVYSL [ARP7] | 2.57 ± 0.05 | 2.78 ± 0.046 | 2.63 ± 0.051 | 2.88 ± 0.039
YKLVNKNKENNTFTWNH [RPN4] | 2.65 ± 0.23 | 3.49 ± 0.27 | 3.09 ± 0.082 | 3.12 ± 0.21
LKIIHTSVWAGQKRLSQ [PRP8] | 1.36 ± 0.15 | 1.31 ± 0.12 | – | 1.48 ± 0.23
LAEKVEKASRQQRKQKK [RPS24A] | 3.65 ± 0.27 | 3.33 ± 0.11 | 3.35 ± 0.1 | 3.15 ± 0.2
AVARLKSMNKSAINQYN [SNF2] | 1.81 ± 0.073 | 2.33 ± 0.076 | 2.34 ± 0.052 | 2.88 ± 0.032
VFSALKNLISRINTLPQ [ECM29] | 3.06 ± 0.12 | 2.36 ± 0.091 | 1.76 ± 0.22 | 2.71 ± 0.051
LSRKPSDNKKRSGSNAA [RPC82] | 2.92 ± 0.06 | 3.31 ± 0.064 | 3.03 ± 0.045 | 3.03 ± 0.044
GMIVISMENYHLLIKII [SRB8] | 1.96 ± 0.043 | 2.04 ± 0.044 | 2.71 ± 0.048 | 2.66 ± 0.045
SNMILGSVELSTGDYTF [YML103C/NUP188] | 2.48 ± 0.055 | 2.35 ± 0.065 | 2.16 ± 0.077 | 2.43 ± 0.037
AALRTVKSLVDNMITGV [RPL9A] | 2.5 ± 0.091 | 3.17 ± 0.076 | 2.99 ± 0.071 | 3.03 ± 0.075
IDLEAPVQIVKRITQIT [RPS20] | 2.15 ± 0.12 | 2.23 ± 0.2 | 1.78 ± 0.14 | 2.2 ± 0.094
FLKHNGEEDAVDLLLEI [RPN1] | 3.23 ± 0.082 | 3.16 ± 0.12 | 3.24 ± 0.072 | 3.3 ± 0.05
KLLLLRINSTDEDLHEF [SRB8] | 2.61 ± 0.2 | 3.06 ± 0.16 | 2.94 ± 0.18 | 3.24 ± 0.27
NNNEDNENNNNSSEKNN [MED2] | 3.11 ± 0.052 | 3.37 ± 0.043 | 3.2 ± 0.039 | 3.15 ± 0.048
KLQLSFVLQMVGKTAQS [SRP72] | – | – | 1.42 ± 0.16 | –
VTNDLDTSAEKDQIQAG [SIR4] | 3.32 ± 0.12 | 3.36 ± 0.12 | 3.28 ± 0.11 | 3.21 ± 0.073
KIYINLALGSHNKLIQF [SSN2] | 2.57 ± 0.17 | 1.83 ± 0.078 | 2.13 ± 0.11 | 2.22 ± 0.071
QHDSSANEDEEEQLDAL [CSN12] | 3.55 ± 0.25 | 2.75 ± 0.21 | – | 3 ± 0.17
QIMQLKKICNHPFVFEE [SNF2] | 2.77 ± 0.075 | 2.38 ± 0.053 | 2.53 ± 0.063 | 2.55 ± 0.059
DFTLIPRMASVFENYVK [CDC53] | 3.15 ± 0.091 | 2.88 ± 0.06 | 2.71 ± 0.061 | 3.13 ± 0.081
KKEEKLNIGKNFAHSDS [SIR4] | 3.18 ± 0.059 | 2.97 ± 0.057 | 3.12 ± 0.033 | 3.11 ± 0.037
IEQLFPVRPVRVRHEDV [RPC53] | 2.9 ± 0.076 | 2.97 ± 0.048 | 2.89 ± 0.055 | 3.03 ± 0.037
VLDVDPKYAKQKDKSDT [ISW2] | 2.91 ± 0.11 | 3.01 ± 0.069 | 3.05 ± 0.14 | 3.03 ± 0.084
SPSYSPTSPSYSPTSPS [RPO21] | 2 ± 0.032 | 2.33 ± 0.03 | 2.06 ± 0.034 | 2.1 ± 0.025
EVYRTSLNTKKNEKLIL [SMC3] | 1.75 ± 0.082 | 1.96 ± 0.074 | 2.73 ± 0.13 | 2.35 ± 0.1

Sequence | protein stability index (doa10∆) | protein stability index (pdr5∆) | protein stability index (san1∆) | protein stability index (ubr1∆)
KKKAFTKYSAKYAQDGA [RPL3] | 3.03 ± 0.12 | 3.38 ± 0.09 | 3.1 ± 0.054 | 3.04 ± 0.032
IIKMTIPYAAKLLFQEL [RET1] | 2.18 ± 0.1 | 2.08 ± 0.12 | 1.75 ± 0.22 | 1.9 ± 0.073
TNVYSKDLVIVSNLMGR [RPB3] | 3.04 ± 0.073 | 2.97 ± 0.059 | 2.96 ± 0.051 | 2.79 ± 0.04
VSSLPGSTDKSLDFLNQ [COR1] | 3.45 ± 0.18 | – | 3.02 ± 0.28 | –
LPAAVSKSLQESGDTQE [RPC82] | 2.37 ± 0.096 | 2.74 ± 0.11 | 2.97 ± 0.059 | 2.83 ± 0.093
YDSRSGTHNMYKEIRDV [RPL20A] | 3.11 ± 0.069 | 3.06 ± 0.064 | 3.16 ± 0.043 | 3.18 ± 0.056
WQIEEAGNSQITSGGFL [SRB5] | 2.98 ± 0.2 | 3.13 ± 0.17 | 3.07 ± 0.25 | 3.23 ± 0.14
CQLQNSDNSEEEEVDID [RRP43] | 3.2 ± 0.077 | 3.22 ± 0.065 | 3.02 ± 0.08 | 3.13 ± 0.056
LQFRPAPMYILDEVDAA [SMC2] | 1.59 ± 0.2 | 1.89 ± 0.25 | – | 1.89 ± 0.1
HLLVQLQKNDVYAFKAK [REC8] | 3.15 ± 0.075 | 2.99 ± 0.064 | 2.73 ± 0.059 | 3.15 ± 0.074
QPTNFTTKRLWSEITES [MCD1] | 1.99 ± 0.088 | 2.38 ± 0.066 | 2.04 ± 0.089 | 2.04 ± 0.09
ENLEESFLSKHALYLAP [SSN2] | 3.12 ± 0.056 | 3.31 ± 0.065 | 3.26 ± 0.044 | 3.28 ± 0.05
FLFQNINFERIDEVFSW [GRR1] | 2.36 ± 0.059 | 2.36 ± 0.071 | 2.47 ± 0.056 | 2.28 ± 0.048
DLCSLKPYVDRFAFSVI [DIS3] | 1.93 ± 0.05 | 1.87 ± 0.052 | 1.93 ± 0.065 | 2.27 ± 0.04
NDRNPRLNENKKIGCYM [CSN12] | 3.04 ± 0.069 | 3.22 ± 0.072 | 3.12 ± 0.051 | 3.26 ± 0.065
HLRSNILKDLIYRGVLN [SMC1] | 1.74 ± 0.059 | 1.78 ± 0.085 | 1.8 ± 0.14 | 1.74 ± 0.056
YVAIVVDPLKSLEDKIL [RRI1] | 1.12 ± 0.069 | 1.38 ± 0.07 | – | 1.68 ± 0.081
RQILFKYPMYMQLEEEL [MED6] | 2.18 ± 0.064 | 2.25 ± 0.069 | 2.37 ± 0.12 | 1.72 ± 0.062
EHIKQDYVASLNELYQT [NSL1] | 2.91 ± 0.062 | 3.1 ± 0.057 | 2.84 ± 0.047 | 2.88 ± 0.053
ALGQDTEKMEEQLDLLS [MED11] | 3.03 ± 0.099 | 3.09 ± 0.082 | 2.99 ± 0.073 | 3.31 ± 0.064
QNNTTKFHSELQYLDKH [RPN12] | 2.81 ± 0.1 | 3 ± 0.095 | 2.39 ± 0.26 | 3.17 ± 0.061
AKKRKTLILIQNPENLL [SIR3] | 3.04 ± 0.094 | 2.54 ± 0.099 | 3.11 ± 0.092 | 2.78 ± 0.096
LKSGLPLSGLLFKNYRF [YMR129W/POM152] | 3.65 ± 0.18 | 2.52 ± 0.2 | 3.63 ± 0.057 | –
KRDQYLKSASKETAPVI [RPL28] | 2.7 ± 0.12 | 2.69 ± 0.12 | 2.59 ± 0.065 | 2.43 ± 0.13
KVISEILTKEVQGSTLA [RPS1A] | 2.29 ± 0.026 | 2.336 ± 0.023 | 2.29 ± 0.03 | 2.194 ± 0.018
KLINIKKFDISNDNLDL [MED1] | 2.83 ± 0.2 | 3.01 ± 0.15 | 2.48 ± 0.15 | 2.83 ± 0.096
